From US20250346679A1 (INVOX PHARMA, published 2025)

Experiments:
[1] = molecular target: human CD137, cell-surface (human, UniProt Q07011 24-255); assay: cell-based or functional assay
[2] = molecular target: T1, cynomolgus PD-L1, cell-surface (cynomolgus); assay: flow cytometry on HEK.cPD-L1
T1 construct: also called HEK.cPD-L1; HEK.cyPD-L1
Procedure: Non-specific binding was also assessed by testing binding to HEK293 parental cells lacking human PD-L1 (Flp-In T-Rex 293 cell line, Life Technologies, R780-07).
HEK293, HEK.hPD-L1 and HEK.cPD-L1 suspensions were prepared in FACS buffer (DPBS (Gibco, 14190-094) containing 0.5% BSA (Sigma, A7906)) and seeded at 1×10⁵ cell/well in 100 μl in round bottomed 96-well plates (VWR, 734-1797). […] The washed cells were resuspended in the diluted antibody mixture, incubated at 4° C. for 30 minutes, and then washed once in FACS buffer. […] Dead cells were excluded and the fluorescence in the APC channel (638 nm 660/20) was measured. The geometric mean fluorescence intensity (GMFI) values were plotted vs the log concentration of antibody and the resulting curves were fitted using the log (agonist) vs response equation in GraphPad Prism.

[3] = molecular target: T2, biotinylated hPD-L1-Avi-His (Acro Biosystems, PD1-H82E5) (human, UniProt Q9NZQ7 19-238, biotinylated); assay: SPR, mAb^2 captured on Protein A chip, antigen in flow
T2 construct: bought; also called Human PD-L1-His; not shown: Avi and His tags of the bought product
T2 sequence (Q9NZQ7 19-238): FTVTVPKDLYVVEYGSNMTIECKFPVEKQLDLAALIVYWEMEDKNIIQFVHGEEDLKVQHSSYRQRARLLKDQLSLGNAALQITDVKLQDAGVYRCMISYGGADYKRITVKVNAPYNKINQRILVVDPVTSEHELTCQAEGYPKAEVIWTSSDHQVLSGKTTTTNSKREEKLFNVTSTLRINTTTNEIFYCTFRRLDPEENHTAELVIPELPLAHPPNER
Procedure: (§1) Briefly, the anti-human CD137/PD-L1 mAb², diluted in HBS-EP buffer (GE Healthcare, BR100188) at 2 μg/ml, were injected individually on flows cell 2, 3 and 4 of a Protein A chip (GE Healthcare, 29127556) at 30 μl/min to achieve a final response of approximately 110 RU. Two different recombinant human PD-L1 antigens were used i.e. hPD-L1-His-Avi (see Example 1.3 for antigen details) and biotinylated hPD-L1-Avi-His (Acrobiosystems, PD-1-H82E5). Human and cynomolgus PD-L1-His (Acrobiosystems, PD-1-C52H4) antigens, diluted in HBS-EP buffer, were injected on flow cell 1, 2, 3 or 4 as appropriate at a concentration range of 81 nM to 0.037 nM with 3-fold dilutions for 4 min at 75 μl/min and then allowed to dissociate in buffer for 10 min. Regeneration was achieved by injecting 10 mM glycine-HCL pH1.5 (GE Healthcare, Human Antibody Capture Kit, BR00356) for 30 sec at a rate of 30 μl/min. Subtracted data (flow cell 2−flow cell 1, flow cell 3−flow cell 1, or flow cell 4−flow cell 1) were analysed using BIAevaluation 3.2 Software (GE Healthcare) to identify binding using the model 1:1 binding with mass transfer, with refractive index (RI) constant 0.

[4] = molecular target: T3, cPD-L1-His (Acro Biosystems, PD1-C52H4) (cynomolgus, UniProt Q9NZQ7 19-238 (human entry)); assay: as above
T3 construct: bought; also called Cyno PD-L1-His; Cynomolgus PD-L1-His; not shown: His tag of the bought product
T3 sequence (Q9NZQ7 other isoform, or with tags, fused parts or gaps): as the sequence (Q9NZQ7 19-238) above, with A33T, A34S, S62N, R68Q, Q82R, F173L, T185A, T192I, H215L counted along it
Procedure: as §1

hCD137-mFc-Avi = molecular target: T4, hCD137-mFc-Avi (human; mouse, UniProt Q07011 24-186, biotin on the Avi sequence where the biotinylated form was used); assay: SPR, mAb^2 captured by anti-human Fab, antigen in flow
T4 construct: also called human CD137-mFc-Avi; dimeric human CD137; not shown: mouse IgG2a Fc domain (mIgG2a Fc)
T4 sequence (Q07011 24-186): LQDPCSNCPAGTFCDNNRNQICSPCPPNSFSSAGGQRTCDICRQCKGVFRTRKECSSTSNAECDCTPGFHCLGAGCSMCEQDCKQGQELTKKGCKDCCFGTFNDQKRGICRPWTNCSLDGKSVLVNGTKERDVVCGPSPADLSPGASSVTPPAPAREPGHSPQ
Procedure: (§2) The binding of the anti-human CD137/PD-L1 mAb² to recombinant dimeric human and cynomolgus CD137 antigens was also measured by SPR using a Biacore T200 processing unit (GE Healthcare).
(§3) Briefly, 20 μg/ml anti-human Fab antibody (GE Healthcare, Human Fab Capture kit 28958325) was coated on flow cells 1, 2, 3 and 4 of a Biacore sensor S chip CM5 (GE Healthcare, BR100530) achieving a final response of approximately 5000 RU. […] The recombinant dimeric antigens, human CD137-mFc-Avi or cynomolgus CD137-mFc-Avi (see Example 1.1 for antigen details) diluted in HBS-EP buffer, were injected on flow cell 1, 2, 3 or 4 as appropriate at a concentration range of 81 nM to 0.037 nM with 3-fold dilutions for 4 minutes at 70 μl/min and then allowed to dissociate in buffer for 10 minutes. Regeneration was achieved by injecting 10 mM glycine pH 2.1 (GE Healthcare, Human Fab Capture kit 28958325) for 60 seconds at a rate of 30 μl/min. Data analysis was performed as described in Example 9.1.

cCD137-mFc-Avi = molecular target: T5, cCD137-mFc-Avi (cynomolgus; mouse); assay: as above
T5 construct: also called cynomolgus CD137-mFc-Avi; Cyno CD137-mFc-Avi; not shown: mouse IgG2a Fc domain (mIgG2a Fc)
T5 chain: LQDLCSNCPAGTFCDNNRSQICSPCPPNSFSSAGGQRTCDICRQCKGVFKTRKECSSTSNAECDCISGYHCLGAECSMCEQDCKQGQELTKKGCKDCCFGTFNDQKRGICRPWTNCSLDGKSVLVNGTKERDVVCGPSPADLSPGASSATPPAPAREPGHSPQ
Procedure: as §2, §3

hPD-L1-His-Avi = molecular target: T6, hPD-L1-His-Avi (human); assay: SPR, mAb^2 captured on immobilised human PD-L1 His, then hCD137-mFc-Avi (100 nM) in flow
T6 construct: also called human PD-L1-His Avi; Human PD-L1 His
T6 sequence (chain, as listed by the source limits assumed): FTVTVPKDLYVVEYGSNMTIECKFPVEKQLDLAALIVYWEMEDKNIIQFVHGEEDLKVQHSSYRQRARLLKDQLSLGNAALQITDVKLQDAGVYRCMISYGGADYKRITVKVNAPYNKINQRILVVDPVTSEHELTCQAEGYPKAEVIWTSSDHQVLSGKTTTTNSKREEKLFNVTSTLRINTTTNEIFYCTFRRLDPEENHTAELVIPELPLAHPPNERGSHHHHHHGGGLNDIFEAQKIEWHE

[5] = molecular target: T7, human PD-L1, cell-surface (human, UniProt Q9NZQ7 19-290); assay: flow cytometry on activated primary human CD8+ T cells (carry PD-L1 and CD137); activated primary human CD8+ T cells (carry PD-L1 and little CD137)
T7 construct: also called HEK.hPD-L1; PD-L1 on MDA-MB-231, on Promega PD-L1 cells, on primary human cells
T7 sequence (Q9NZQ7 19-290): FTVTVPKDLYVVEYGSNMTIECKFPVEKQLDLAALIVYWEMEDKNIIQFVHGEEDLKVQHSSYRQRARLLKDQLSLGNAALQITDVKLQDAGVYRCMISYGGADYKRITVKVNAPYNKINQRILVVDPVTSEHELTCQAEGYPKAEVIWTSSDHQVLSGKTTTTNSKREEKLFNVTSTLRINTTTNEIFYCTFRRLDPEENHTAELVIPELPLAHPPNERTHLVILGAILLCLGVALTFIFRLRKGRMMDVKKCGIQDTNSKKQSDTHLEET
Procedure: CD137 is rapidly expressed to high levels on activated CD8⁺ T cells and also on activated CD4⁺ T cells with lower levels (Xue-Zhong Yu et al, 2013), therefore Pan T cells were stimulated for 24 hours using Dynabeads™ Human T-Activator CD3/CD28 beads (Thermo, 11132D) according to manufacturer's instructions.
Dead cells were excluded and the fluorescence in the APC channel (638 nm 660/20) was measured to show test antibody binding. The geometric Mean Fluorescence Intensity (GMFI) values were plotted vs the log concentration of antibody and the resulting curves were fitted using the log (agonist) vs response equation in GraphPad Prism.

T1 sequence (chain, as listed by the source limits assumed): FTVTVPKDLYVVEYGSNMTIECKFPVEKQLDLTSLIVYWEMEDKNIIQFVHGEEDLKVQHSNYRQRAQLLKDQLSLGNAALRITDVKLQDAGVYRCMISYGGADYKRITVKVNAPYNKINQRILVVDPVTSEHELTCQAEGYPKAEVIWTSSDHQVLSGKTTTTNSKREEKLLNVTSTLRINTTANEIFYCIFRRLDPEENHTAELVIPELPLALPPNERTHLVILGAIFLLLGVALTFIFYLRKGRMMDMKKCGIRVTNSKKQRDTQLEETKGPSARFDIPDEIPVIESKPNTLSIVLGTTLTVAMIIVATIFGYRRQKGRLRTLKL

B1: FS22-172-003-AA/E12v2 (bispecific antibody, human IgG1, kappa, L234A L235A)
heavy: EVQLVQSGAEVKRPGASVKVSCKASGYPFTSYGISWVRQAPGQGLEWMGWISAYSGGTNYAQKLQGRVTMTTDTSTSTAYMELRSLRSDDTAVYYCARDLFPTIFGVSYYYYWGQGTLVTVSSASTKGPSVFPLAPSSKSTSGGTAALGCLVKDYFPEPVTVSWNSGALTSGVHTFPAVLQSSGLYSLSSVVTVPSSSLGTQTYICNVNHKPSNTKVDKKVEPKSCDKTHTCPPCPAPEAAGGPSVFLFPPKPKDTLMISRTPEVTCVVVDVSHEDPEVKFNWYVDGVEVHNAKTKPREEQYNSTYRVVSVLTVLHQDWLNGKEYKCKVSNKALPAPIEKTISKAKGQPREPQVYTLPPSRDELPYIIPPYNQVSLTCLVKGFYPSDIAVEWESNGQPENNYKTTPPVLDSDGSFFLYSKLTVGADRWLEGNVFSCSVMHEALHNHYTQKSLSLSPG
light: DIQMTQSPSTLSASVRDRVIITCRASQSIGNRLAWYQHKPGKAPKLLIYEASTSETGVPSRFSGSGSGTDFTLTISSLQPEDFATYYCQQSYSTPYTFGQGTKLEIKRTVAAPSVFIFPPSDEQLKSGTASVVCLLNNFYPREAKVQWKVDNALQSGNSQESVTEQDSKDSTYSLSSTLTLSKADYEKHKVYACEVTHQGLSSPVTKSFNRGEC
notes: PD-L1 site in the Fab, CD137 site in the CH3, LALA; also called anti-human CD137/PD-L1 mAb^2
[1]
  EC50 (nM), IFN-γ release, CEF antigen recall assay (CD8+ T cell activation): 0.03 nM
[2]
  EC50: 0.7 nM
[3]
  Kd: 0.19 nM
[4]
  Kd: 0.36 nM
hCD137-mFc-Avi
  Kd: 0.7 nM
cCD137-mFc-Avi
  Kd: 0.8 nM
hPD-L1-His-Avi
  binding result: binds
[5]
  EC50: 0.9 nM
